Target: SARS-CoV-2 Spike protein on pseudotyped virus (SARS-CoV-2, UniProt P0DTC2 14-1273)
Assay: cell-based or functional assay

Row | Binder | IC50, neutralization of SARS-CoV-2pp, DBT-ACE2 cells [µg/mL] | IC50, neutralization of SARS-CoV-2pp, DBT-ACE2 cells (further assays) [µg/mL]
1 | SARS-CoV-2 S304 (antibody, V domains shown) VH: EVQLVESGGGLVQPGGSLRLSCAASGFTFSSYDMHWVRQTTGKGLEWVSTIGTAGDTYYPDSVKGRFTISREDAKNSLYLQMNSLRAGDTAVYYCARGDSSGYYYYFDYWGQGTLLTVSS VL: DIQMTQSPSSLSAAVGDRVTITCRASQSIGSYLNWYQQKPGKAPKLLIYAASSLQSGVPSRFSGSGSGTDFTLTISSLQPEDFAIYYCQQSYVSPTYTFGPGTKVDIK | ~17 | 
2 | SARS-CoV-2 S315 (antibody, V domains shown) VH: EVQLVESGGGLVQPGGSLRLSCAASGFTFSNYWMTWVRQAPGKGLEWVANIKQDGSEKYYVDSVKGRFTISRDNAKNSLYLQMNSLRAEDTAVYYCARDLWWNDQAHYYGMDVWGQGTTVTVSS VL: SYELTQPPSVSVSPGQTARITCSGDAFPNQYAYWYQQKPGQAPVMLIYKDSERPSGIPERFFGSSSGTTVTLTIRGVQAEDEADYYCQSADSSGTVFGGGTKLTVL |  | 25.1

Reference: patent US20240400652A1 (VIR BIOTECHNOLOGY, published 2024)
